How the values were obtained:
[1] = target: T1, native human complement component C1q protein purified from human serum (Quidel) (human, UniProt P02745 23-245; P02746 28-253; P02747 29-245); experiment: cell-based or functional assay
[2] = target: T1, native human complement component C1q …; experiment: SPR Biacore, captured Ab, hC1q analyte, 37C
[3] = target: T2, Recombinant bacterial IsdB expressed with a hexahistidine tag (IsdB-6xHis; REGN2655) (Staphylococcus aureus, UniProt A6QG30 42-613); experiment: SPR Biacore, captured Ab, IsdB-6xHis analyte, 25C
[4] = target: T2, Recombinant bacterial IsdB expressed …; experiment: SPR Biacore, captured Ab, IsdB-6xHis analyte, 37C
[5] = target: T1, native human complement component C1q …; experiment: cell-based or functional assay; remark: listed apart in the source
[6] = target: T1, native human complement component C1q …; experiment: SPR Biacore, captured Ab, hC1q analyte, 25C
[7] = target: T1, native human complement component C1q …; experiment: SPR Biacore, captured Ab, hC1q analyte, 37C; 37 C; hC1q binding to the C1q arm of the bispecific antibody
[8] = target: T3, IsdB expressed on the surface of S. aureus Wood 46 (Staphylococcus aureus); experiment: ELISA on plate-coated S. aureus Wood 46
T3 construct: whole, on cells
Procedure: Briefly, S. aureus Wood 46 was grown in RPMI overnight, washed in PBS and adjusted to an OD₆₀₀ of 0.25. MaxiSorp 96 well microtiter plates were coated overnight with 100 μl of S. aureus culture per well. Plates were washed and blocked with 3% BSA. […] Anti-human HRP conjugated secondary antibody was added to washed plates. Luminescence reagents (SuperSignal Pico) were then added to the wells and signal was detected in a plate reader (Victor X3 plate reader, Perkin Elmer) immediately. Luminescence values were analyzed by a four-parameter logistic equation over a 7-point response curve (GraphPad Prism) to determine the binding EC₅₀, of the antibodies.

[9] = target: T1, native human complement component C1q …; experiment: cell-based or functional assay; remark: listed apart in the source
[10] = target: T1, native human complement component C1q …; experiment: SPR Biacore, captured Ab, hC1q analyte, 25C; 25 C; hC1q binding to the C1q arm of the bispecific antibody
[11] = target: T1, native human complement component C1q …; experiment: competition ELISA, 6 nM biot-hC1q, competitor plate-coated hIgM
[12] = target: T1, native human complement component C1q …; experiment: competition ELISA, 30 pM biot-hC1q, competitor plate-coated hIgG1-k
[13] = target: T1, native human complement component C1q …; experiment: competition ELISA, 30 pM biot-hC1q, competitor plate-coated hIgG3-k
[14] = target: T1, native human complement component C1q …; experiment: competition ELISA, 6 nM biot-hC1q, competitor plate-coated hIgG2-k

T3 sequence (Q2FZF0 41-613): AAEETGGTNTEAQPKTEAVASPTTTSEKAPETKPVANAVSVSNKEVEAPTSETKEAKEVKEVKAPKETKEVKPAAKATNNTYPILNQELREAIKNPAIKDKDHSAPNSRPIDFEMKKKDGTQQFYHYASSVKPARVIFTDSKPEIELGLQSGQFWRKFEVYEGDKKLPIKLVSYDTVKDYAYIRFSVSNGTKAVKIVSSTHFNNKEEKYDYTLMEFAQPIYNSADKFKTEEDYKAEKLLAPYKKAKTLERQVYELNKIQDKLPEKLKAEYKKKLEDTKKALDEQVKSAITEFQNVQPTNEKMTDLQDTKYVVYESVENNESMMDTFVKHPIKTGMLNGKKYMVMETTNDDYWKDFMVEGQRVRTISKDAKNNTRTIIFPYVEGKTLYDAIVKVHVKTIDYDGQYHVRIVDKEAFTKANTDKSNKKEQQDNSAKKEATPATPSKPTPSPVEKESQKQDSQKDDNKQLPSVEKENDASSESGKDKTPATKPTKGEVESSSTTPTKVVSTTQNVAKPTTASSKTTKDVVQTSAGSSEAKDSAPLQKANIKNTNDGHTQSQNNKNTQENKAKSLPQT
T1 sequence (P02745 23-245 limits assumed, chain 1 of 3): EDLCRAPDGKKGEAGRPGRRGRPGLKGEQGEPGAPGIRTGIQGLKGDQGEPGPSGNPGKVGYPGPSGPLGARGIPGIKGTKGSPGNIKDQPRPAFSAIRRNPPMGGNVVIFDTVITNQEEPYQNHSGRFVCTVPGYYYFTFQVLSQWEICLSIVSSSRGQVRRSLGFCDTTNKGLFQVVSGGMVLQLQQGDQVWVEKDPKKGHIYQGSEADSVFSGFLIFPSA
T1 sequence (P02746 28-253 limits assumed, chain 2 of 3): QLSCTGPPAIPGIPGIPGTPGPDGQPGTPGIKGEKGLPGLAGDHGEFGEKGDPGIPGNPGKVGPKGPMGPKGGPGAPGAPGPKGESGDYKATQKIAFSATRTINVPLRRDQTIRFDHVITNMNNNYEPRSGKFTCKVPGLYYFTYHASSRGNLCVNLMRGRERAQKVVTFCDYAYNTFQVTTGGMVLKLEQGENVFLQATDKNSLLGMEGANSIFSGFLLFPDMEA
T1 sequence (P02747 29-245 limits assumed, chain 3 of 3): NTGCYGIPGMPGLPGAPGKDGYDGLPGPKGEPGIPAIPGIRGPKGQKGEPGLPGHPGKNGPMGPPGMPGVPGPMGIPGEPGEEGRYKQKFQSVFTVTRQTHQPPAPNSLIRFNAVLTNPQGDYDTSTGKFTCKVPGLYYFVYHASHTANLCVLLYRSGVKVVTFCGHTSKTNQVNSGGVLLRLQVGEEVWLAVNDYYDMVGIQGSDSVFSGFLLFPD
T2 sequence (A6QG30 42-613, tags left off): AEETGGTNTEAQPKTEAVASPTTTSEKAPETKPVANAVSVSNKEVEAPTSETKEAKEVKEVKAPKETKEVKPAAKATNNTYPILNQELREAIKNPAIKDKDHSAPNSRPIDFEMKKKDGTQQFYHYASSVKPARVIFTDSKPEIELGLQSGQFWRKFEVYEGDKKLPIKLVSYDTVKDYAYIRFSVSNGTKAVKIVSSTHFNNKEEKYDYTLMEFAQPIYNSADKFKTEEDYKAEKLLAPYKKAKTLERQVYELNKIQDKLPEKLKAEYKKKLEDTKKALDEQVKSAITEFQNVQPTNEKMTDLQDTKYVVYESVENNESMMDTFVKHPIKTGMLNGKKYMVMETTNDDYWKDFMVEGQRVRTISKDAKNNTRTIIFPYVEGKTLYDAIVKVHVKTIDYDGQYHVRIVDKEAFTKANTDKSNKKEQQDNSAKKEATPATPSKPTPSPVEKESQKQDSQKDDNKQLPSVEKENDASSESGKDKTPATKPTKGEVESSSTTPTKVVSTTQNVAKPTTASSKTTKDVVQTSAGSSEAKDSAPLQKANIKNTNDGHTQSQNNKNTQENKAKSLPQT

| Binder | inhibition of CDC of Daudi cells, IC50 [M] [1] [M] | inhibition of CDC of Daudi cells, Max % Inhibition [1] [%] | t1/2 [2] [min] | Kd [3] [nM] | t½ [3] [min] | Kd [4] [nM] | t1/2 [4] [min] | C1q deposition on S. aureus Cowan I EC50 [5] [nM] | t½ [6] [min] | Kd [7] [nM] | EC50 [8] [nM] | Classical Pathway hemolysis assay % inhibition [9] [%] | Classical Pathway hemolysis assay IC50 [9] [nM] | Kd [10] [nM] | % Blockade with 600 nM bispecific Ab [11] [%] | IC50 [11] [nM] | koff [2] [s⁻¹] | kon [2] [M⁻¹ s⁻¹] | koff [3] [s⁻¹] | kon [3] [M⁻¹ s⁻¹] | further results |
| --- | --- | --- | --- | --- | --- | --- | --- | --- | --- | --- | --- | --- | --- | --- | --- | --- | --- | --- | --- | --- | --- |
| H1H20631D (bispecific antibody, V domains shown, H1H = human IgG1 Fc; also called anti-IsdB x anti-C1q bispecific antibody) VH 1: EVQLVESGGGLVQPGRSLRLSCTTSGFTFDDYAMHWVRQVPGQGLEWVAGLSWNSDTIGYADSVKGRFTISRDNAKNSLYLQMKSLKAEDTALYYCTKDFYHSLNNWNYYYFDYWGQGTLVTVSS VH 2: EVQLVESGGGVVQPGGSLRLSCAASGFSLDDYAMHWVRQTPGKGLEWVSLISGDGSRTSYADSVKGRFTISRDNSKNSLYLKMNSLRTEDTALYYCTKDPHNSNWFDPWGQGTLVTVSS VL: not shown | > 1e-07 | 94 | 5.19 | 2.36 | 42.8 | 3.43 | 20.7 | 0.297 | 7.01 | 0.193 | 1.26 | 100 | 2.67 | 0.228 |  |  |  |  |  |  |  |
| H1H20633D (bispecific antibody, V domains shown, also called anti-IsdB x anti-C1q bispecific antibody) VH 1: EVQLVESGGGLVQPGRSLRLSCTTSGFTFDDYAMHWVRQVPGQGLEWVAGLSWNSDTIGYADSVKGRFTISRDNAKNSLYLQMKSLKAEDTALYYCTKDFYHSLNNWNYYYFDYWGQGTLVTVSS VH 2: EVQLVQSGAEVKKPGESLKISCKASGYNFNSYWIGWVRQMPGKGLEWMGIVFPGDSDTRYSPSFQGQVTISADESINTAYLQWSSLKASDTAVYYCARHTRWYLDYWGQGTLVTVSS VL: not shown | 1.7e-08 | ≥ 99 | 0.91 | 2.04 | 46.9 | 3.41 | 21.4 | 0.203 | 3.32 |  | 1.31 | 100 | 1.42 |  | 96 | 6.4 | 0.0127 | 2.61e+07 | 0.000247 | 121000 | Kd [2]: 0.487 nM; koff [4]: 0.00054 s⁻¹; kon [4]: 159000 M⁻¹ s⁻¹; % Blockade with 30 nM bispecific Ab [12]: 93%; IC50 [12]: 1.6 nM; Kd [6]: 0.271 nM; koff [6]: 0.00348 s⁻¹; kon [6]: 1.28e+07 M⁻¹ s⁻¹; % Blockade with 30 nM bispecific Ab [13]: 84%; IC50 [13]: 4.8 nM; % Blockade with 600 nM bispecific Ab [14]: 79%; IC50 [14]: 8.2 nM |
| H1H20635D (bispecific antibody, V domains shown, also called anti-IsdB x anti-C1q bispecific antibody) VH 1: EVQLVESGGGLVQPGRSLRLSCTTSGFTFDDYAMHWVRQVPGQGLEWVAGLSWNSDTIGYADSVKGRFTISRDNAKNSLYLQMKSLKAEDTALYYCTKDFYHSLNNWNYYYFDYWGQGTLVTVSS VH 2: EVQLVQSGAEVKKPGESLKIFCKGSGYSFINDWIGWVRQMPGKGLEWMGLIFPGDSDTRYSPVFQGHVTISADQSIDTAYLQWNSLKASDTAIYYCAVLRYWHFAIWGRGTLVTVSS VL: not shown | 2.8e-08 | ≥ 99 | 0.66 | 1.7 | 56.6 | 3.33 | 22.2 | 0.425 | 2.56 | 0.723 | 1.96 | 97 | 8.88 | 0.309 | 93 | 12 | 0.0174 | 2.41e+07 | 0.000204 | 120000 | koff [4]: 0.00052 s⁻¹; kon [4]: 156000 M⁻¹ s⁻¹; % Blockade with 30 nM bispecific Ab [12]: 87%; koff [6]: 0.00452 s⁻¹; kon [6]: 1.46e+07 M⁻¹ s⁻¹; % Blockade with 30 nM bispecific Ab [13]: 53%; % Blockade with 600 nM bispecific Ab [14]: 84%; IC50 [14]: 16 nM |

Source: patent US20210147519A1 (Regeneron, published 2021)
